Publication PMC2188280 (The Journal of Experimental Medicine, 1987)

B1: CD2, purified, detergent-solubilized (receptor, human (endogenous in Jurkat or SKW3), UniProt P06729 25-351, looked up)
chain: KEITNALETWGALGQDINLDIPSFQMSDDIDDIKWEKTSDKKKIAQFRKEKETFKEKDTYKLFKNGTLKIKHLKTDDQDIYKVSIYDTKGKNVLEKIFDLKIQERVSKPKISWTCINTTLTCEVMNGTDPELNLYQDGKHLKLSQRVITHKWTTSLSAKFKCTAGNKVSKESSVEPVSCPEKGLDIYLIIGICGGGSLLMVFVALLVFYITKRKKQRSRRNDEELETRAHRVATEERGRKPHQIPASTPQNPATSQHPPPPPGHRSQAPSHRPPPPGHRVQHQPQKRPPAPSGTQVHQQKGPPLPRPRVQPKPPHGAAENSLSPSSN
B2: lymphocyte function-associated antigen 3 (LFA-3) on human erythrocytes (ligand, human (endogenous in erythrocytes), UniProt P19256 29-250, looked up)
chain: FSQQIYGVVYGNVTFHVPSNVPLKEVLWKKQKDKVAELENSEFRAFSSFKNRVYLDTVSGSLTIYNLTSSDEDEYEMESPNITDTMKFFLYVLESLPSPTLTCALTNGSIEVQCMIPEHYNSHRGLIMYSWDCPMEQCKRNSTSIYFKMENDLPQKIQCTLSNPLFNTTSSIILTTCIPSSGHSRHRYALIPIPLAVITTCIVLYMNGILKCDRKPDRTNSN

Assays:
[1] = target: B2; assay: flow cytometry on cells
[2] = target: B1; assay: flow cytometry on cells

| IC50 [1] [nM] | Ka [2] [M⁻¹] | Binder |
| --- | --- | --- |
| ~30 | – | B1 |
| – | ~3e+07 | B2 |
